Legend:
[1] = biological target: T1, sMafG^DBD released by TEV from NRF2-sMafGχ or BACH1-sMafGχ (human, UniProt O15525 1-162); test: native gel or EMSA; chimeric constructs (0-300 nM) titrated on fluorescein-labelled CsMBE dsDNA (3 nM) with TEV and 3C proteases 4 h at 25 C; 150 mM NaCl, 50 mM HEPES pH 7.9, 10% glycerol, 1 mM TCEP, 1 mM DTT, 2 mM MgCl2; 6% non-denaturing gel; heterodimer on DNA; conditions: both partners purified
T1 construct: small Maf protein G (sMafG), human, residues 1-162, the C-terminal half of the chimeric constructs; also called sMafG of NRF2/sMafG and BACH1/sMafG; sMafG^DBDχ; source: E. coli One Shot BL21 Star (DE3), purified as the chimera (HisTrap, heparin, SEC); cut from the chimera by 3C and TEV in the assay; not shown: linker with 6xHis and TEV site, N-terminal, cleaved

[2] = biological target: T2, sMafG^YbbR (fluorescein-labelled sMafG^DBD-YbbR released by TEV from NRF2-TEV-sMafGχ^YbbR or … (human, UniProt O15525 1-162, fluorescein (CoA-fluorescein conjugate put on the YbbR tag by Sfp))); test: native gel or EMSA; competition: fluorescein-labelled chimera (150 nM) assembled on Cy5-labelled dsDNA (3 nM) with TEV and 3C 4 h at 25 C, then the DBD competitor (150 nM-1.5 uM) added, overnight at 4 C; 10% non-denaturing gel, Cy5 and fluorescein scans; conditions: both partners purified
T2 construct: small Maf protein G (sMafG), human, residues 1-162, the C-terminal half of the chimeric constructs; source: cut from the chimera by TEV in the assay; not shown: linker with 6xHis and TEV site, N-terminal, cleaved

[3] = biological target: the molecule itself; test: SEC-MALS; Superdex 75 increase 10/300, 50 mM HEPES pH 7.9, 2 mM TCEP, 500 mM NaCl, 1-2 mg protein injected; without DNA

Binder | binding result [1] | binding result [2] | stoichiometry N [3]
BACH1^DBD released by 3C from BACH1-sMafGχ (domain or fragment, also called BACH1 of BACH1/sMafG; source: E. coli One Shot BL21 Star (DE3), purified as the chimera (HisTrap, heparin, SEC); cut from the chimera by 3C and TEV in the assay; not shown: linker with 3C site and 6xHis, C-terminal, cleaved) not shown | binds |  | 
NRF2^DBD with the uncleaved 6xHis linker (released by TEV from NRF2-TEV-sMafGχ^YbbR) (domain or fragment, human, UniProt Q16236 451-567, looked up, The linker stays on this chain and gives the supershift; also called NRF2^DBD-6xHis-TEV; NRF2 of NRF2/sMafG^YbbR; source: cut from the chimera by TEV in the assay; not shown: linker with 6xHis (3C site removed, up to the TEV site), C-terminal, kept) EAHLTRDELRAKALHIPFPVEKIINLPVVDFNEMMSKEQFNEAQLALIRDIRRRGKNKVAAQNCRKRKLENIVELEQDLDHLKDEKEKLLKEKGENDKSLHLLKKQLSTLYLEVFSM |  | binds | 
NRF2^DBD released by 3C from NRF2-sMafGχ (domain or fragment, human, UniProt Q16236 451-567, looked up, also called NRF2 of NRF2/sMafG; source: E. coli One Shot BL21 Star (DE3), purified as the chimera (HisTrap, heparin, SEC); cut from the chimera by 3C and TEV in the assay; not shown: linker with 3C site and 6xHis, C-terminal, cleaved) EAHLTRDELRAKALHIPFPVEKIINLPVVDFNEMMSKEQFNEAQLALIRDIRRRGKNKVAAQNCRKRKLENIVELEQDLDHLKDEKEKLLKEKGENDKSLHLLKKQLSTLYLEVFSM | binds |  | 
NRF2^DBD (domain or fragment, human, UniProt Q16236 451-567, looked up, The His-tag is called cleavable; TEV and 3C proteases were present in the EMSA samples; also called NRF2^DBD-3C-6xHis; source: E. coli One Shot BL21 Star (DE3), purified (His-tag purification, heparin)) EAHLTRDELRAKALHIPFPVEKIINLPVVDFNEMMSKEQFNEAQLALIRDIRRRGKNKVAAQNCRKRKLENIVELEQDLDHLKDEKEKLLKEKGENDKSLHLLKKQLSTLYLEVFSM |  | binds | 
BACH1^DBD (domain or fragment, The His-tag is called cleavable; TEV and 3C proteases were present in the EMSA samples; also called BACH1^DBD-3C-6xHis; source: E. coli One Shot BL21 Star (DE3), purified (HisTrap, heparin, SEC)) not shown |  | binds | 2
BACH1^DBD with the uncleaved 6xHis linker (released by TEV from BACH1-TEV-sMafGχ^YbbR) (domain or fragment, The linker stays on this chain and gives the supershift; also called BACH1^DBD-6xHis-TEV; BACH1 of BACH1/sMafG^YbbR; source: cut from the chimera by TEV in the assay; not shown: linker with 6xHis (3C site removed, up to the TEV site), C-terminal, kept) not shown |  | binds | 

Source: publication PMC12561426, “Dissecting the Interplay Between NRF2 and BACH1 at CsMBEs” (Antioxidants, 2025)
